One series addresses T1, TtrBCA (Vibrio parahaemolyticus, UniProt Q87N61).
T1 construct: gene VP2014; native complex in V. parahaemolyticus cells; wild type, ttrA deletion and pBAD24-complemented strains; with Tetrathionate reductase subunit B; Tetrathionate reductase subunit C
Kind of series: HPLC of cultures, wild type vs deletion and complemented strains. The class given is cell-based. As to conditions: M9 medium, 10 mM sodium tetrathionate, micro-aerobic, 37 °C; whole-cell cultures; reduction to thiosulfate.

The target in series [1] is T2, TtrR (09830, response regulator) (UniProt Q87N66).
T2 sequence: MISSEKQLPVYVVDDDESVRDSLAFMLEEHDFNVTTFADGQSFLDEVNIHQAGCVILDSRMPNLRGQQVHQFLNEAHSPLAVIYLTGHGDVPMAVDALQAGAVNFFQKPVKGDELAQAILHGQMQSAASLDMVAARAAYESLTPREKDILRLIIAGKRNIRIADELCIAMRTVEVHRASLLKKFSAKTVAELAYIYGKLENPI
Briefly: EMSA. (In general: Mobility shift assays separate free from complexed probe on a gel.)

T1 sequence (Q87N62 entry or part of it): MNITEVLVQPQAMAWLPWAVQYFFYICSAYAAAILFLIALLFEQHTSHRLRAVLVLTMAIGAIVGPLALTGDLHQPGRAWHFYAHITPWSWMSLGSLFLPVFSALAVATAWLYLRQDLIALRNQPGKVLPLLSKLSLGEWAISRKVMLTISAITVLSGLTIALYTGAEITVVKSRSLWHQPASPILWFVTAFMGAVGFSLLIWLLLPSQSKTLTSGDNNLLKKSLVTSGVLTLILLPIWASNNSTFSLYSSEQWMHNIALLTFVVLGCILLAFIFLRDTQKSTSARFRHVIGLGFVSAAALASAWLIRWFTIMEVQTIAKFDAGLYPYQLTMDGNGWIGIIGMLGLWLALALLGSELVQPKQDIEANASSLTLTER
T1 sequence (Q87N63 entry or part of it, further chain): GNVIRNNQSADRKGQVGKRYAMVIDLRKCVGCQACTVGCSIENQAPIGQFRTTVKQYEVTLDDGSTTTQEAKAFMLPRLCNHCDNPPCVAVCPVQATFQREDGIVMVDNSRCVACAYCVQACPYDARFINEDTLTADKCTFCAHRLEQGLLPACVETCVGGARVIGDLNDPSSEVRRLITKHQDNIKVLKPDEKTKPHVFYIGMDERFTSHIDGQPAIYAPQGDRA
T1 sequence (Q87N61 entry or part of it): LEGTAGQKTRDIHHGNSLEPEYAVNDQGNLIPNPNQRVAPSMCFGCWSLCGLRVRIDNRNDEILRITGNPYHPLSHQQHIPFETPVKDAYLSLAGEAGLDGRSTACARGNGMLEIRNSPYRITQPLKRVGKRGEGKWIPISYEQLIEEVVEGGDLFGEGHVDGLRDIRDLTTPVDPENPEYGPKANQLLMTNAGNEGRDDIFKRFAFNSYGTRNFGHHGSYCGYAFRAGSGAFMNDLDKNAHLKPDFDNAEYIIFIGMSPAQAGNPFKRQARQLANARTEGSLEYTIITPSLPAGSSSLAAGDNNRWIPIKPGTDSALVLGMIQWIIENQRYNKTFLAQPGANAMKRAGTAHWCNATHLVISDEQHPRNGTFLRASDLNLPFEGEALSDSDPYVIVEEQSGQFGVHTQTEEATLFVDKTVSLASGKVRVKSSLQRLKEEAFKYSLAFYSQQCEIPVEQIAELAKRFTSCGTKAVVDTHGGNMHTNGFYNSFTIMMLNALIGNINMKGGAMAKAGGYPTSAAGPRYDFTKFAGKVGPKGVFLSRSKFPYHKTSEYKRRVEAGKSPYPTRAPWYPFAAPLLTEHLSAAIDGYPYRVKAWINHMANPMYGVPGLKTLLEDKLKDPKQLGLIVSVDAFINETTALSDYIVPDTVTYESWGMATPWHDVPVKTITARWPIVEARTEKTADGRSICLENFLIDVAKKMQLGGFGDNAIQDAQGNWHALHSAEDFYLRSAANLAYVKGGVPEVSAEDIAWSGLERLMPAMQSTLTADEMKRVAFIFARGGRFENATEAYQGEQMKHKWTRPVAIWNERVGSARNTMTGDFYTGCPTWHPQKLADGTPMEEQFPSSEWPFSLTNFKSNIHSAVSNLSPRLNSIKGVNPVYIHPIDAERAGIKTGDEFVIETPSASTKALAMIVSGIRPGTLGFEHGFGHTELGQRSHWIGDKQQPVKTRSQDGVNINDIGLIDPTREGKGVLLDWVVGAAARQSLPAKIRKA

In the case of `O=S(=O)(O)SSS(=O)(=O)O` [tetrathionate], at TtrBCA, the “HPLC of cultures, wild type vs deletion and complemented strains” value is listed as “confirming that ttrBCA is essential for tetrathionate reduction”.
“CAATACCTGCAATGGGGACCAACGCGGCACCCGCTGTAATGGCGCTAAGAAAGCGACGTTTGGTGGAATCCATAACTCACCTGCTGTTAGTTGAATTTGAACTGACTGATTCCATTGTGAGAAATGCGCTGCGACGTCGATATAGTGGATTTCCACATACCCAGATCAAAGTTGATCTAAAACAAATGTGGTTTACGGAAGGTAGCTGTTATTCTTGCTTCATTATTTTCGAAGGAACGATTCGACTCATC (double strand) [PttrS (ttrRS promoter)]”: the binding result in series [1] is “binds”.
On the same count and under the same terms, the value for “CGCCCTGAGCTAAAGATGCAAAGACAACCAAGCACAGAATCCAAAACTGAAGCAACCGTGGCGTTTTGTTCATGATGAGTCGAATCGTTCCTTCGAAAATAATGAAGCAAGAATAACAGCTACCTTCCGTAAACCACATTTGTTTTAGATCAACTTTGATCTGGGTATGTGGAAATCCACTATATCGACGTCGCAGCGCATTTCTCACAATGGAATCAGTCAGTTCAAATTCAACTAACAGCAGGTGAGTT (double strand) [PttrB (ttrBCA promoter)]” was “binds”; that for “CGCCCTGAGCTAAAGATGCAAAGACAACCAAGCACAGAATCCAAAACTGAAGCAACCGTGGCGTTTTGTTCATGATGAGTCGAATCGTTCCTTCGAAAATAATGAAGCAAGAATAACAGCTACCTTCCGTAAACCACATTTGTTTTAGATCAACTTTGATCTGGGTATTATATCGACGTCGCAGCGCATTTCTCACAATGGAATCAGTCAGTTCAAATTCAACTAACAGCAGGTGAGTT (double strand) [PttrB-Δbox]” was “no binding”; that for “GCTGACTCACTTTAATTGTTATTAATATCTCCAAGTGTCTACTGTGATAGTGACTTGGGTGCTGTATTGTCGGCTTTGTCAATAACTAAAGGTATTATATTTAGAGGATGTGAAGAGCTGCTAAATGGCAGCTCTTCAGGTTTGGTTGTCTACTAAGCTTTGCGGATTTTGGCTGGTAATGATTGGCGAGCAGCGGCTCCTACCACCCAATCTAACAACACGCCTTTCCCTTCTCGG (double strand) [PtsdB-Δbox]” was “no binding”.
Still for that read-out and setting: the value for “GCTGACTCACTTTAATTGTTATTAATATCTCCAAGTGTCTACTGTGATAGTGACTTGGGTGCTGTATTGTCGGCTTTGTCAATAACTAAAGGTATTGTGGATTTCCACATATTTAGAGGATGTGAAGAGCTGCTAAATGGCAGCTCTTCAGGTTTGGTTGTCTACTAAGCTTTGCGGATTTTGGCTGGTAATGATTGGCGAGCAGCGGCTCCTACCACCCAATCTAACAACACGCCTTTCCCTTCTCGG (double strand) [P09855 (PtsdB, tsdBA promoter)]” was “binds”.
